Reference: patent US20230357422A1 (published 2023)

Biological target: T1, 4-1BB antigen (human, UniProt Q07011 24-186, limits assumed)
T1 construct: also called human 4-1BB antigen; human 4-1BB protein
Assay: BLI (ForteBio), antibody on AHQ sensor, 100 nM 4-1BB antigen, 1:1 model
Procedure: ForteBio affinity determination was performed according to the existing method (Estep, P et al., Solution-based measurement of high-throughput antibody-antigen affinity and epitope classification, MAbs, 2013.5(2):p. 270-8). Briefly, the sensor was equilibrated offline for 30 min in the assay buffer, then the baseline was established by detection online for 60 s, and the purified antibody obtained as described above was loaded onto the AHQ sensor online. Then, the sensor was put into 100 nM 4-1BB antigen to act for 5 minutes, and the sensor was transferred to PBS and dissociated for 5 minutes. Analysis of kinetics was performed using a 1:1 binding model.

T1 sequence (Q07011 24-186 limits assumed): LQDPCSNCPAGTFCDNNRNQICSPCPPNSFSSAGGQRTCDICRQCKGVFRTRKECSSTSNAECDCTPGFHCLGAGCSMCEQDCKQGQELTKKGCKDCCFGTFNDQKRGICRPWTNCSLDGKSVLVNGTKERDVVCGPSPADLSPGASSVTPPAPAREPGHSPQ

B1: A-Ye-14 (Fc fusion)
chain: QVQLQESGGGLVQPGGSLRLSCAASGFSLGLYAIGWFRQAPGKEREWVSCIMSSDSSAYYADSVKGRFTVSRDNAKNTVYLQMNRLKPEDTAVYYCAAPQSDCFHYSENDYWGQGTQVTVSSTHTCPPCPAPEAAGGPSVFLFPPKPKDTLMISRTPEVTCVVVDVSHEDPEVKFNWYVDGVEVHNAKTKPREEQYNSTYRVVSVLTVLHQDWLNGKEYKCKVSNKALPAPIEKTISKAKGQPREPQVYTLPPSREEMTKNQVSLTCLVKGFYPSDIAVEWESNGQPENNYKTTPPVLDSDGSFFLYSKLTVDKSRWQQGNVFSCSVMHEALHNHYTQKSLSLSPG
Kd: 14.5 nM

B2: A-Ye-23 (Fc fusion)
chain: QVQLQESGGGLVQPGGSLRLSCAASGFSLGLYAIAWFRQAPGKEREWVSCIEKSDSSAYYADSVKGRFTVSRDNAKNTVDLQMNRLSPEDTAVYYCAAPQSDCFHYKENDYWGQGTQVTVSSTHTCPPCPAPEAAGGPSVFLFPPKPKDTLMISRTPEVTCVVVDVSHEDPEVKFNWYVDGVEVHNAKTKPREEQYNSTYRVVSVLTVLHQDWLNGKEYKCKVSNKALPAPIEKTISKAKGQPREPQVYTLPPSREEMTKNQVSLTCLVKGFYPSDIAVEWESNGQPENNYKTTPPVLDSDGSFFLYSKLTVDKSRWQQGNVFSCSVMHEALHNHYTQKSLSLSPG
Kd: 23.4 nM

B3: A-Ye-22 (Fc fusion)
chain: QVQLQESGGGLVQAGGSLRLSCAASGFSLDYYAIGWFRQAPGKEREWVSCITASDSSAYYADSVKGRFTISRDNAKNTVYLRMNSLKPEDTAVYYCAAPRSDCFHYGENDYWGQGTQVTVSSTHTCPPCPAPEAAGGPSVFLFPPKPKDTLMISRTPEVTCVVVDVSHEDPEVKFNWYVDGVEVHNAKTKPREEQYNSTYRVVSVLTVLHQDWLNGKEYKCKVSNKALPAPIEKTISKAKGQPREPQVYTLPPSREEMTKNQVSLTCLVKGFYPSDIAVEWESNGQPENNYKTTPPVLDSDGSFFLYSKLTVDKSRWQQGNVFSCSVMHEALHNHYTQKSLSLSPG
Kd: 22.6 nM

B4: A-Ye-21 (Fc fusion)
chain: QVQLQESGGGLVQPGGSLRLSCAASGFSLDYYAIGWFRQAPGKEREWVSCIMSSDSSAYYADSVKGRFTISRDNAKNLVYLRMNSLKPEDTAVYYCTAPRSDCFHYGENDYWGQGTQVTVSSTHTCPPCPAPEAAGGPSVFLFPPKPKDTLMISRTPEVTCVVVDVSHEDPEVKFNWYVDGVEVHNAKTKPREEQYNSTYRVVSVLTVLHQDWLNGKEYKCKVSNKALPAPIEKTISKAKGQPREPQVYTLPPSREEMTKNQVSLTCLVKGFYPSDIAVEWESNGQPENNYKTTPPVLDSDGSFFLYSKLTVDKSRWQQGNVFSCSVMHEALHNHYTQKSLSLSPG
Kd: 23 nM

B5: A-Ye-19 (Fc fusion)
chain: QVQLQESGGGLVQAGGSLRLSCAASGFSLGLYAIGWFRQAPGKEREWVSCIMSSDSSAYYADSVKGRFTVSRDNAKNTVYLQMNRLKPEDTAVYYCAAPQSDCFHYSENDYWGQGTQVTVSSTHTCPPCPAPEAAGGPSVFLFPPKPKDTLMISRTPEVTCVVVDVSHEDPEVKFNWYVDGVEVHNAKTKPREEQYNSTYRVVSVLTVLHQDWLNGKEYKCKVSNKALPAPIEKTISKAKGQPREPQVYTLPPSREEMTKNQVSLTCLVKGFYPSDIAVEWESNGQPENNYKTTPPVLDSDGSFFLYSKLTVDKSRWQQGNVFSCSVMHEALHNHYTQKSLSLSPG
Kd: 13 nM

B6: L-Yr-13&14-03 (Fc fusion)
chain: QVQLQESGGGLVQPGESLRLSCDSGRIFSYNFMGWYRQAPGKQRELVASITWGGTIKYADSVKGRFTISRHDAENTVYLQMNSLKSEDTAVYYCHAATDTGVIYWGQGTQVTVSSTHTCPPCPAPEAAGGPSVFLFPPKPKDTLMISRTPEVTCVVVDVSHEDPEVKFNWYVDGVEVHNAKTKPREEQYNSTYRVVSVLTVLHQDWLNGKEYKCKVSNKALPAPIEKTISKAKGQPREPQVYTLPPSREEMTKNQVSLTCLVKGFYPSDIAVEWESNGQPENNYKTTPPVLDSDGSFFLYSKLTVDKSRWQQGNVFSCSVMHEALHNHYTQKSLSLSPG
Kd: 19.1 nM

B7: L-Yr-13&14-01 (Fc fusion)
chain: QVQLQESGGGLVQAGGSLRLSCAASGSFNAMGWWRQAPGKQREFVAIITRDGSTNLADSVKGRFTISSDNAKNTWFLQMNSLKPEDTAVYYCSASDYGSSLYYWGQGTQVTVSSTHTCPPCPAPEAAGGPSVFLFPPKPKDTLMISRTPEVTCVVVDVSHEDPEVKFNWYVDGVEVHNAKTKPREEQYNSTYRVVSVLTVLHQDWLNGKEYKCKVSNKALPAPIEKTISKAKGQPREPQVYTLPPSREEMTKNQVSLTCLVKGFYPSDIAVEWESNGQPENNYKTTPPVLDSDGSFFLYSKLTVDKSRWQQGNVFSCSVMHEALHNHYTQKSLSLSPG
Kd: 19.5 nM

B8: A-Ye-20 (Fc fusion)
chain: QVQLQESGGGLVQAGGSLRLSCAASGFTFDDYAIGWFRQAPGKEREGVLCISSSGGSTYYADSVKGRFTISRDNAKNTVYLQMTNLKPEDTAVYLCGAPRDCSYYTSDDYWGQGTQVTVSSTHTCPPCPAPEAAGGPSVFLFPPKPKDTLMISRTPEVTCVVVDVSHEDPEVKFNWYVDGVEVHNAKTKPREEQYNSTYRVVSVLTVLHQDWLNGKEYKCKVSNKALPAPIEKTISKAKGQPREPQVYTLPPSREEMTKNQVSLTCLVKGFYPSDIAVEWESNGQPENNYKTTPPVLDSDGSFFLYSKLTVDKSRWQQGNVFSCSVMHEALHNHYTQKSLSLSPG
Kd: 26.8 nM

B9: A-Ye-27 (Fc fusion)
chain: QVQLQESGGGLVQPGGSLRLSCAASGFSLGLYAIGWFRQAPGKEREWVSCIMSSDSSAYYADSVKGRFTVSRDNAKNTVYLQMTNLKPEDTAVYLCGAPRDCSRYSSDDYWGQGTQVTVSSTHTCPPCPAPEAAGGPSVFLFPPKPKDTLMISRTPEVTCVVVDVSHEDPEVKFNWYVDGVEVHNAKTKPREEQYNSTYRVVSVLTVLHQDWLNGKEYKCKVSNKALPAPIEKTISKAKGQPREPQVYTLPPSREEMTKNQVSLTCLVKGFYPSDIAVEWESNGQPENNYKTTPPVLDSDGSFFLYSKLTVDKSRWQQGNVFSCSVMHEALHNHYTQKSLSLSPG
Kd: 7.55 nM

B10: A-Ye-25 (Fc fusion)
chain: QVQLQESGGGLVQVGGSLRLSCAASGFTFDDYAIGWFRQAPGKEREGVLCISSSGGSTYYADSLKGRFTISRDNAKNTVYLQMTNLKPEDTAVYLCGAPRDCSLYTGDDYWGQGTQVTVSSTHTCPPCPAPEAAGGPSVFLFPPKPKDTLMISRTPEVTCVVVDVSHEDPEVKFNWYVDGVEVHNAKTKPREEQYNSTYRVVSVLTVLHQDWLNGKEYKCKVSNKALPAPIEKTISKAKGQPREPQVYTLPPSREEMTKNQVSLTCLVKGFYPSDIAVEWESNGQPENNYKTTPPVLDSDGSFFLYSKLTVDKSRWQQGNVFSCSVMHEALHNHYTQKSLSLSPG
Kd: 13.5 nM

B11: L-Yr-13&14-05 (Fc fusion)
chain: QVQLQESGGGLVQAGGSLRLSCAASGRTLSGYVMGWFRQASGKERELVAAISSGGSTYYEDSVKGRFTISRDNAKNTMYLQMNSLKPEDTAVYYCAADPRRLTGLYDYWGQGTQVTVSSTHTCPPCPAPEAAGGPSVFLFPPKPKDTLMISRTPEVTCVVVDVSHEDPEVKFNWYVDGVEVHNAKTKPREEQYNSTYRVVSVLTVLHQDWLNGKEYKCKVSNKALPAPIEKTISKAKGQPREPQVYTLPPSREEMTKNQVSLTCLVKGFYPSDIAVEWESNGQPENNYKTTPPVLDSDGSFFLYSKLTVDKSRWQQGNVFSCSVMHEALHNHYTQKSLSLSPG
Kd: 33.5 nM
